From US20190016816A1 (APTEVO RESEARCH AND DEVELOPMENT, published 2019) come the findings set out here.

The target of assay [1] is T1, recombinant human CD137 extracellular domain (ECD) (human).
T1 construct: Monomeric, made in HEK-293; also called Hu CD137; human 4-1BB ECD
Briefly: SPR (Biacore T200, 25 C), bispecific captured on anti-human IgG, monomeric ECD injected, 1:1 fit. On the procedure:
(§1) Goat anti-human IgG F(ab′)2 fragment (Jackson ImmunoResearch) at 20 μg/mL in 10 mM sodium acetate (pH 4.5) was immobilized at a density of 2000 response units (RU) onto the flow cell of a CM5 research-grade sensor chip (GE) by standard amine coupling chemistry. Each bispecific variant at 200 nM in HBS-EP+ buffer was captured in the flow cell with the immobilized anti-human IgG at a flow rate of 50 μL/min for 60 sec to reach ˜500 RU response, leaving one flow cell surface unmodified as the reference. Following a 30 sec stabilization period, four different concentrations of each ECD (0, 20, 60, and 180 nM) were injected at 50 μL/min for either 120 sec followed by a 240 sec dissociation period (for 5T4) or 90 sec followed by a 180 sec dissociation period (for 4-1BB). Regeneration was achieved by duplicate injections of 10 mM glycine (pH 1.5) at a flow rate of 50 μL/min for 30 sec followed by HBS-EP+ buffer stabilization for 1 min.
(§2) Sensorgrams obtained from kinetic SPR measurements were analyzed by the double subtraction method. The signal from the reference flow cell was subtracted from the analyte binding response obtained from flow cells with immobilized or captured ligands. Buffer reference responses were then averaged from multiple injections. The averaged buffer reference responses were then subtracted from analyte binding responses, and the final double-referenced data were analyzed with Biacore T200 Evaluation software (2.0, GE), globally fitting data to derive kinetic parameters. All sensorgrams were fitted using a simple one-to-one binding model.
In general terms: Surface plasmon resonance follows binding to a sensor surface in real time, without labels.

Assay [2] addresses T2, recombinant human 5T4 extracellular domain (ECD) (human).
T2 construct: Monomeric, made in HEK-293; also called Hu 5T4; monomeric 5T4 ectodomain
T2 chain: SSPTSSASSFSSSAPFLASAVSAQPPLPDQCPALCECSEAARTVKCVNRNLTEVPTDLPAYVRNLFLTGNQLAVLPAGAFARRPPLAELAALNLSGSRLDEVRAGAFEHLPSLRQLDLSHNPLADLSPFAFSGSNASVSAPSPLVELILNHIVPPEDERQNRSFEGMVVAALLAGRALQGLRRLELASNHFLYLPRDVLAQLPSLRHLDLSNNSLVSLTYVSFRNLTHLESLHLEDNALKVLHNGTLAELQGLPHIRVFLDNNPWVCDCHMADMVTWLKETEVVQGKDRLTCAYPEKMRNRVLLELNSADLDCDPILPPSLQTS
The assay is described as above. On the procedure: as §1, §2

Assay [3] addresses T3, human 5T4 on cells (human, UniProt Q13641 32-420).
T3 construct: also called TPBG; hu5T4
T3 sequence: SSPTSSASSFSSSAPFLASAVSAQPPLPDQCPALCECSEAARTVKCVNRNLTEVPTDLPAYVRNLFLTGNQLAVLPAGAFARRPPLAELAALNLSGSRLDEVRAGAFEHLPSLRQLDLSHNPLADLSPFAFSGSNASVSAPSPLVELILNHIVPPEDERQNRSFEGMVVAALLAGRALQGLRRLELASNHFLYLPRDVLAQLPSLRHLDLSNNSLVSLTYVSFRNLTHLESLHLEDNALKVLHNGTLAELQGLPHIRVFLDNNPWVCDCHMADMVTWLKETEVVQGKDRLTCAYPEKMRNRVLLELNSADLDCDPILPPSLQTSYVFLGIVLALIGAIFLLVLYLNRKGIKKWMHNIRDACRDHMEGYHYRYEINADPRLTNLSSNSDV
Kind of assay: flow cytometry, murine CT26 cells expressing human 5T4, labelled anti-human IgG secondary, MFI (mean). A general note: A flow cytometer gives signals particle by particle.

The target in assay [4] is T4, cynomolgus 5T4 on cells (cynomolgus macaque, UniProt Q4R8Y9 35-420).
T4 construct: whole, on cells; also called CHO-K1/cynomolgus 5T4 transfectants
T4 sequence (looked up): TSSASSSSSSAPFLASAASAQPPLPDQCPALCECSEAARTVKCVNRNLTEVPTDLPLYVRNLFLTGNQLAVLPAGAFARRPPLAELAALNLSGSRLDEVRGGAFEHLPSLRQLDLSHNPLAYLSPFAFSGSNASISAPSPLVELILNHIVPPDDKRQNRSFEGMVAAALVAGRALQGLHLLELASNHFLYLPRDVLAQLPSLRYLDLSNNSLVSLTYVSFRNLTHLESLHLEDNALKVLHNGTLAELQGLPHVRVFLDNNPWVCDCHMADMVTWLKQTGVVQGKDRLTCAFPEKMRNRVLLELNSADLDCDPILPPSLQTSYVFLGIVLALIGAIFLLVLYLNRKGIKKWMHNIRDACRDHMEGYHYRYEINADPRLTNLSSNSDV
Kind of assay: flow cytometry, CHO-K1/cynomolgus 5T4 transfectants, labelled anti-human IgG secondary, MFI (mean). How it is done:
Binding studies were performed by standard flow cytometry-based staining procedures two cell lines expressing 5T4:CHO-K1 cells (obtained from Alligator) transduced with human or cynomolgus macaque 5T4 and SKOV-3 human ovarian adenocarcinoma cells which express (human) 5T4. All labeling and washes were performed in U-bottom 96-well plates in saline buffer with 0.1% BSA and 2 mM EDTA. Cell were plated at approximately 100,000 cells per well and incubated with a range of 100 nM to 0.05 nM concentrations of test molecules in […], for 30 minutes on ice. Cells were washed three times then incubated for another 30 min on ice with fluorescently-labeled secondary polyclonal antibody, F(ab′)² goat anti-human IgG (Jackson ImmunoResearch Laboratories). The cells were then washed twice and the samples acquired in a BD LSRII or a Symphony A3 flow cytometer. The sample files were analyzed using FlowJo software; the mean fluorescence intensity (MFI-mean) or median fluorescence intensity (MFI-median) of the live population of cells in each well was calculated after gating on live cells (forward vs side scatter). Nonlinear regression analysis to determine EC₅₀ values was performed in GraphPad Prism 6® graphing and statistics software.

T1 sequence (chain, as listed by the source limits assumed): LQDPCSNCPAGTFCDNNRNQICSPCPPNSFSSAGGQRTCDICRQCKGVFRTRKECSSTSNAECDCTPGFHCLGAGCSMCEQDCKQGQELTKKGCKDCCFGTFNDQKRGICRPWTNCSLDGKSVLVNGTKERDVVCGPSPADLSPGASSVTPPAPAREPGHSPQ

B1: ALG.APV-210 (bispecific antibody)
chain: EVQLLESGGGLVQPGGSLRLSCAASGFTFSHGSMYWVRQAPGKGLEWVSSISSGSGSTYYADSVKGRFTISHDNSKNTLYLQMNSLRAEDTAVYYCARSSYYGSYYSIDYWGQGTLVTVSSGGGGSGGGGSGGGGSGGGGSDIQMTQSPSSLSASVGDRVTITCRASQSISSYLNWYQQKPGKAPKLLIYAASSLQSGVPSRFSGSGSGTDFTLTISSLQPEDFATYYCQQYYDNLPTFGQGTKLEIKEPKSSDKTHTCPPCPAPEAAGAPSVFLFPPKPKDTLMISRTPEVTCVVVDVSHEDPEVKFNWYVDGVEVHNAKTKPREEQYNSTYRVVSVLTVLHQDWLNGKEYKCAVSNKALPAPIEKTISKAKGQPREPQVYTLPPSRDELTKNQVSLTCLVKGFYPSDIAVEWESNGQPENNYKTTPPVLDSDGSFFLYSKLTVDKSRWQQGNVFSCSVMHEALHNHYTQKSLSLSPGSGGGGSGGGGSGGGGSPSEVQLLESGGGLVQPGGSLRLSCAASGFTFSSYAMSWVRQAPGKCLEWVSAISGSGGSTYYADSVKGRFTISRDNSKNTLYLQMNSLRAEDTAVYYCARYYGGYYSAWMDYWGQGTLVTVSSGGGGSGGGGSGGGGSGGGGSDIQMTQSPSSLSASVGDRVTITCRASQSISSFLNWYQQKPGKAPKLLIYAASSLQSGVPSRFSGSGSGTDFTLTISSLQPEDSATYYCQQTYGYLHTFGCGTKLEIKR
notes: Optimized ADAPTIR scFv-Fc-scFv homodimer with stabilizing disulfide in the 1210 scFv; also called 5T4-CD137 bispecific antibody
In the case of B1, in assay [1], the Kd (as a rule, the equilibrium constant for the complex coming apart) amounted to 59 nM; the koff (usually a measure of how fast the partners let go of each other) was found to be 0.033 s⁻¹; the kon (in general, the second-order rate constant of association) is 550000 M⁻¹ s⁻¹. Moreover, in assay [2], the Kd came out at 79 nM, the koff was 0.0012 s⁻¹ and the kon worked out at 15000 M⁻¹ s⁻¹. Further, in assay [3], the EC50 – broadly, the concentration needed to bring the measured effect to its halfway point – turned out to be 2.7 nM and the “Maximum MFI” value was determined as 1730. In addition, in assay [4], the concentration for a half-maximal effect (EC50) came to 7.2 nM and the “Maximum MFI” value was determined as 23800.

B2: ALG.APV-187 (bispecific antibody)
chain: EVQLLESGGGLVQPGGSLRLSCAASGFTFSHGSMYWVRQAPGKGLEWVSSISSGSGSTYYADSVKGRFTISHDNSKNTLYLQMNSLRAEDTAVYYCARSSYYGSYYSIDYWGQGTLVTVSSGGGGSGGGGSGGGGSGGGGSDIQMTQSPSSLSASVGDRVTITCRASQSISSYLNWYQQKPGKAPKLLIYAASSLQSGVPSRFSGSGSGTDFTLTISSLQPEDFATYYCQQYYDNLPTFGQGTKLEIKSSEPKSSDKTHTCPPCPAPEAAGAPSVFLFPPKPKDTLMISRTPEVTCVVVDVSHEDPEVKFNWYVDGVEVHNAKTKPREEQYNSTYRVVSVLTVLHQDWLNGKEYKCAVSNKALPAPIEKTISKAKGQPREPQVYTLPPSRDELTKNQVSLTCLVKGFYPSDIAVEWESNGQPENNYKTTPPVLDSDGSFFLYSKLTVDKSRWQQGNVFSCSVMHEALHNHYTQKSLSLSPGSGGGGSGGGGSGGGGSPSEVQLLESGGGLVQPGGSLRLSCAASGFTFSSYAMSWVRQAPGKCLEWVSAISGSGGSTYYADSVKGRFTISRDNSKNTLYLQMNSLRAEDTAVYYCARYYGGYYSAWMDYWGQGTLVTVSSGGGGSGGGGSGGGGSGGGGSDIQMTQSPSSLSASVGDRVTITCRASQSISSFLNWYQQKPGKAPKLLIYAASSLQSGVPSRFSGSGSGTDFTLTISSLQPEDSATYYCQQTYGYLHTFGCGTKLEIKR
notes: Optimized ADAPTIR scFv-Fc-scFv homodimer with stabilizing disulfide in the 1210 scFv
With B2, in assay [1], the Kd turned out to be 73 nM, the koff stood at 0.027 s⁻¹ and the kon is 370000 M⁻¹ s⁻¹. Further, in assay [2], the Kd amounted to 35 nM, the koff came out at 0.00072 s⁻¹ and the kon amounted to 21000 M⁻¹ s⁻¹. Besides, in assay [3], the midpoint of the response, the EC50, lay at 2.2 nM and the “Maximum MFI” value was 1730. In addition, in assay [4], the EC50 came to 8.5 nM and the “Maximum MFI” value is 26000.
